Source: PMC10786891, “Massively parallel profiling of RNA-targeting CRISPR-Cas13d”
Residue numbers refer to the chain shown, from its start. Names and notes keep the numbering of the source.

T1: EsCas13d, nuclease-dead (Eubacterium siraeum, UniProt B0MS50, R295A;H300A;R849A;H854A)
T1 sequence: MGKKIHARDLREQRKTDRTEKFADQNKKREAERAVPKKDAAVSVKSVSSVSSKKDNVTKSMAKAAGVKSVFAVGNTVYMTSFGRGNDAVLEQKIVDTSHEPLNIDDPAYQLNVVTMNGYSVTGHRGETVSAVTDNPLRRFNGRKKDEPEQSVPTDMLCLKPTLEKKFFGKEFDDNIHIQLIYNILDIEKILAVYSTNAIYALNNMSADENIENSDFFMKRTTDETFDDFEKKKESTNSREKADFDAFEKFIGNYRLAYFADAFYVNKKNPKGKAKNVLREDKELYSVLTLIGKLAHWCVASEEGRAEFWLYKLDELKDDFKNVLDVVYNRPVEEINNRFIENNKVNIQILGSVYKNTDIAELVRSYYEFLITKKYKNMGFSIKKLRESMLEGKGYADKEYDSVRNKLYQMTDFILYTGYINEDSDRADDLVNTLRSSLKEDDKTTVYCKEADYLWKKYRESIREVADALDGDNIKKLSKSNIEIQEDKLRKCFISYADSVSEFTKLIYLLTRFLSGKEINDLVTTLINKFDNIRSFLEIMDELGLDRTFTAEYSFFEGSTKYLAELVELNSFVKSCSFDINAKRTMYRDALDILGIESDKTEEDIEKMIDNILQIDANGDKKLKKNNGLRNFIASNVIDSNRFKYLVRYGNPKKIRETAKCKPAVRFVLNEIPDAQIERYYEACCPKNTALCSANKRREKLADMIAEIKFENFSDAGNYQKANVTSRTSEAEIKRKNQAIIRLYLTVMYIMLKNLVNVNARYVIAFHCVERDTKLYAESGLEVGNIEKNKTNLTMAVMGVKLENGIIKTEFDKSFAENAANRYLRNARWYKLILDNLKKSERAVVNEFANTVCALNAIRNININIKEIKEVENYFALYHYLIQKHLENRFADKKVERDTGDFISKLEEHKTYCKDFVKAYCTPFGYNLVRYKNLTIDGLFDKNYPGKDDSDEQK

B1: target 1 del2,del5 (mixed)
RNA 1: CACCCGUGCAAAAAUGCAGGGGUCUAAAACUGAGCGGAUAACCUCUCUAUGG
RNA 2: GGGAAUGGAUCCACAUCUACGAAUUCGUACCAUAGAGAGGUUAUCCCUACCGAGAUCGGAAGAGCACACGU
B2: target 1 C4U,C6G (mixed)
RNA 1: B1 RNA 1
RNA 2: GGGAAUGGAUCCACAUCUACGAAUUCGUACCAUAGAGAGGUUAUCGGUUCACCGAGAUCGGAAGAGCACACGU
B3: target 1 insU 3' of 12,insA 3' of 4 (mixed)
RNA 1: B1 RNA 1
RNA 2: GGGAAUGGAUCCACAUCUACGAAUUCGUACCAUAGAGAGGUUUAUCCGCAUCACCGAGAUCGGAAGAGCACACGU
B4: target 1 insA 3' of 19,insU 3' of 18 (mixed)
RNA 1: B1 RNA 1
RNA 2: GGGAAUGGAUCCACAUCUACGAAUUCGUACCAUAAUGAGAGGUUAUCCGCUCACCGAGAUCGGAAGAGCACACGU
B5: target 1 A9C,G17U (mixed)
RNA 1: B1 RNA 1
RNA 2: B2 RNA 2 with G35U, A43C, G46C, U48C
B6: target 1 G12A,A16C (mixed)
RNA 1: B1 RNA 1
RNA 2: B2 RNA 2 with A36C, G40A, G46C, U48C
B7: target 1 insU 3' of 20,insA 3' of 8 (mixed)
RNA 1: B1 RNA 1
RNA 2: GGGAAUGGAUCCACAUCUACGAAUUCGUACCAUUAGAGAGGUUAUACCGCUCACCGAGAUCGGAAGAGCACACGU
B8: target 1 insG 3' of 11,insG 3' of 9 (mixed)
RNA 1: B1 RNA 1
RNA 2: B4 RNA 2 with A35G, U36A, A40G, G41U, U44A, A45G
B9: target 1 insG 3' of 10,insU 3' of 9 (mixed)
RNA 1: B1 RNA 1
RNA 2: B3 RNA 2 with U43G, C46U, G48C, C49G, A50C
B10: target 1 insC 3' of 14,insA 3' of 5 (mixed)
RNA 1: B1 RNA 1
RNA 2: B3 RNA 2 with G39C, U41G, C49A, A50C
B11: target 1 insC 3' of 17,insG 3' of 8 (mixed)
RNA 1: B1 RNA 1
RNA 2: B7 RNA 2 with U34A, A35G, G36C, A46G
B12: target 1 insG 3' of 1 (mixed)
RNA 1: B1 RNA 1
RNA 2: GGGAAUGGAUCCACAUCUACGAAUUCGUACCAUAGAGAGGUUAUCCGCUCAGCCGAGAUCGGAAGAGCACACGU
B13: target 1 insG 3' of 14,insU 3' of 6 (mixed)
RNA 1: B1 RNA 1
RNA 2: B3 RNA 2 with U41G, G48U, C49G, A50C
B14: target 1 C6A,G15C (mixed)
RNA 1: B1 RNA 1
RNA 2: B2 RNA 2 with G37C, G46A, U48C
B15: target 1 U11A,A20C (mixed)
RNA 1: B1 RNA 1
RNA 2: B2 RNA 2 with A32C, U41A, G46C, U48C

These binders were tested against T1, EsCas13d, nuclease-dead (assay: crRNA (strand 1, pre-loaded); Mg2+; 40 mM Tris-HCl pH 7.5, 150 mM NaCl, 6 mM MgCl2, 1 mM DTT, 0.1% Tween-20, 0.2 mg/ml BSA; 25 C; 10 min per concentration, then washed). Conditions: tags: His6-TwinStrep-SUMO cleaved; N-terminal SNAP kept (SNAP-Surface 488); label: 3' end held by stalled T7 RNA polymerase.

| Binder | Kd [nM] |
| --- | --- |
| B1 | 16.9 ± 1 |
| B2 | 5.28 ± 0.32 |
| B3 | 6.6 ± 0.8 |
| B4 | 32 ± 1.6 |
| B5 | 62 ± 23 |
| B6 | 36 ± 3.3 |
| B7 | 25.3 ± 2 |
| B8 | 17.2 ± 0.6 |
| B9 | 18.1 ± 1.4 |
| B10 | ~60 |
| B11 | 58 ± 16 |
| B12 | 9 ± 0.7 |
| B13 | 39 ± 6 |
| B14 | 56 ± 6 |
| B15 | 80 ± 40 |
